Laboratory results reported in publication PMC9635297 (Molecular Biology of the Cell, 2022).

Biological target: the molecule itself
Test: SEC

B1: 6xHis-Cdc3 (natural protein)
chain: MSLKEEQVSIKQDPEQEERQHDQFNDVQIKQESQDHDGVDSQYTNGTQNDDSERFEAAESDVKVEPGLGMGITSSQSEKGQVLPDQPEIKFIRRQINGYVGFANLPKQWHRRSIKNGFSFNLLCVGPDGIGKTTLMKTLFNNDDIEANLVKDYEEELANDQEEEEGQGEGHENQSQEQRHKVKIKSYESVIEENGVKLNLNVIDTEGFGDFLNNDQKSWDPIIKEIDSRFDQYLDAENKINRHSINDKRIHACLYFIEPTGHYLKPLDLKFMQSVYEKCNLIPVIAKSDILTDEEILSFKKTIMNQLIQSNIELFKPPIYSNDDAENSHLSERLFSSLPYAVIGSNDIVENYSGNQVRGRSYPWGVIEVDNDNHSDFNLLKNLLIKQFMEELKERTSKILYENYRSSKLAKLGIKQDNSVFKEFDPISKQQEEKTLHEAKLAKLEIEMKTVFQQKVSEKEKKLQKSETELFARHKEMKEKLTKQLKALEDKKKQLELSINSASPNVNHSPVPTKKKGFLR
Which “stoichiometry N” value does the source give for B1 here?
Its value is 2.
